Where two headings read alike, the source gives them in different places.
How the values were obtained:
[1] = system: Human umbilical vein endothelial cells (HUVEC); assay: Glycocalyx quantification (WGA staining) in HUVECs with or without LPS; format: cell-based
Experimental: Human umbilical vein endothelial cells (HUVEC) were purchased from the American Type Culture Collection. Cells were initially grown in 2% gelatin-coated 10-cm plastic dishes using M200 medium supplemented with low serum growth supplement (LSGS) and penicillin/streptomycin in a cell culture incubator at 37° C. with 5% CO2 atmosphere. Cells were passaged by digestion in 0.25% trypsin in Hanks' Balanced Salt Solution (HBSS) after reaching 80% confluence. Cells were used for experiments between passages 1-3. For glycocalyx quantification, HUVECs were plated in 48-well plastic cell culture plates coated with 2% gelatin, at a confluence of approximately 80%. M200+LSGS+penicillin/streptomycin was supplemented with 1% bovine serum albumin (BSA) to support glycocalyx growth. Cells were cultured for 24 hours to allow glycocalyx development before LPS exposure.
After completion of the LPS exposure with or without F-652, HUVECs were fixed by addition of concentrated formaldehyde solution directly to the culture medium to yield a final formaldehyde concentration of 3.5%. […] Glycocalyx and nuclei (4′,6-diamidino-2-phenylindole) were imaged on an EVOS fluorescence microscope under identical conditions. […] ImageJ software was used to quantify glycocalyx fluorescence intensity overlaying the nuclei of each visible cell.

IL-22Ra1 = IL-22Ra1 receptor immunofluorescence in HUVECs; format: cell-based, human
Experimental: HUVECs were fixed in 3.5% formaldehyde in PBS for 10 minutes. Cells were then blocked in 1% BSA in PBS for one hour. Cells were then incubated overnight in primary antibody for IL-22Ra1 (Invitrogen, Carlsbad, Calif.) diluted 1:100 in 1% BSA in PBS. Cells were then washed with PBS 3 times. Cells were incubated with secondary antibody, goat anti-mouse Alexa Fluor 488 (1:500; Invitrogen, A28175) diluted 1:500 in 1% BSA in PBS along with 0.1 μg/ml of 4,6 diamidino-2phylindole (DAPI) (Sigma) for one hour, followed by three washes in PBS. Cells were then cover slipped with Fluoro Gel mounting medium and imaged on an EVOS fluorescence microscope. Fluorescence intensity was quantified using ImageJ.

HUVECs = assay: Real-time quantitative RT-PCR of mRNA levels in HUVECs; format: cell-based, human
Experimental: RNA was isolated with Trizol (Invitrogen) and used as a template for reverse transcriptase (reverse transcriptase mix sold under the trademark ISCRIPT® RT supermix, Bio-Rad). mRNAs were quantified by real-time PCR with the cyanine nucleic acid dye IQ SYBR® Green Supermix (Bio-Rad), and normalized against PPIA mRNA as the internal control gene. Relative changes in expression were calculated using the […] as established in prior studies. (Livak K J, Schmittgen T D. “Analysis of relative gene expression data using real-time quantitative PCR and the 2^−ΔΔCT method.” Methods. 2001; 25(4):402-8).

SARS-CoV-2 = format: cell-based, human; details: for sgm-N RNA copies compared to no F-652 treatment: MOI 0.1, 48 hours post challenge
[2] = system: H1N1 influenza (A/PR8 strain); format: in vivo, C57BL/6 mice
[3] = system: H1N1 influenza (A/PR8 strain); format: in vivo, C57BL/6 mice; details: both aged and young H1N1-infected mice
[4] = system: H1N1 influenza (A/PR8 strain); format: in vivo, C57BL/6 mice; details: aged mice; data not shown
STAT3 = details: F-652 alone compared to control HUVECs
Experimental: To investigate the effects of F-652 on EGX, cultured HUVECs were exposed to either untreated media, 1 μg/mL of LPS, 1 μg/mL of LPS and 0.375 μg/mL of F-652, or 0.375 μg/mL of F-652 alone, for a total of 24 hours.
HUVECs were lysed in lysis buffer (50 mM Tris-HCl pH 7.5, 150 mM NaCl, 0.5 M EDTA, 1% Triton X-100, and Halt™ protease inhibitor cocktail). Proteins were quantified using Bio-Rad protein quantification assay (Bio-Rad Laboratories), and 20-50 μg of protein was separated by SDS-polyacrylamide gel electrophoresis (SDS-PAGE) on a 4-12% gradient acrylamide gel run at 100 V. Proteins were then transferred to 0.45 m PVDF membrane at 30 V for 2 hours. Membranes were blocked in Tris Buffered Saline (TBS: 137 mM NaCl, 20 mM Tris Base), 0.1% Tween 20, and 5% bovine serum albumin (blocking solution) for 1 hour, followed by overnight incubation with primary antibody diluted in TBS, 0.1% Tween 20, and 3% BSA, and 1 hour incubation with horseradish peroxidase-conjugated secondary antibody diluted at 1:5,000. […] Immunoreactive protein was detected using ECL (GE Healthcare) imaged on a Bio-Rad ChemiDoc™ MP Imaging System.

[5] = LPS and F-652 co-exposed, LPS only 1.49
[6] = LPS and F-652 compared to control

B1: F-652: recombinant IL-22 dimer consisting of two monomeric subunits each comprising a sequence shown in SEQ ID NO: 24 (protein)
chain 1: APISSHCRLDKSNFQQPYITNRTFMLAKEASLADNNTDVRLIGEKLFHGVSMSERCYLMKQVLNFTLEEVLFPQSDRFQPYMQEVVPFLARLSNRLSTCHIEGDDLHIQRNVQKLKDTVKKLGESGEIKAIGELDLLFMSLRNACIGSGGGSGGGGSGGGGSVECPPCPAPPVAGPSVFLFPPKPKDTLMISRTPEVTCVVVDVSHEDPEVQFNWYVDGVEVHNAKTKPREEQFNSTFRVVSVLTVVHQDWLNGKEYKCKVSNKGLPASIEKTISKTKGQPREPQVYTLPPSREEMTKNQVSLTCLVKGFYPSDIAVEWESNGQPENNYKTTPPMLDSDGSFFLYSKLTVDKSRWQQGNVFSCSVMHEALHNHYTQKSLSLSPGK
chain 2: APISSHCRLDKSNFQQPYITNRTFMLAKEASLADNNTDVRLIGEKLFHGVSMSERCYLMKQVLNFTLEEVLFPQSDRFQPYMQEVVPFLARLSNRLSTCHIEGDDLHIQRNVQKLKDTVKKLGESGEIKAIGELDLLFMSLRNACIGSGGGSGGGGSGGGGSVECPPCPAPPVAGPSVFLFPPKPKDTLMISRTPEVTCVVVDVSHEDPEVQFNWYVDGVEVHNAKTKPREEQFNSTFRVVSVLTVVHQDWLNGKEYKCKVSNKGLPASIEKTISKTKGQPREPQVYTLPPSREEMTKNQVSLTCLVKGFYPSDIAVEWESNGQPENNYKTTPPMLDSDGSFFLYSKLTVDKSRWQQGNVFSCSVMHEALHNHYTQKSLSLSPGK
modifications: homodimer
glycocalyx staining intensity ([1]; 0.375 μg/mL F-652 alone, 24 hours, control 6.09): 5.08 AU | glycocalyx staining intensity ([1]; 1 μg/mL LPS and 0.375 μg/mL F-652, 24 hours, control 6.09, LPS 5.10): 5.86 AU | IL-22Ra1 receptor expression compared to control (IL-22Ra1; F-652 alone): did not result in a difference | IL-22Ra1 receptor relative expression (IL-22Ra1; LPS and F-652, control 1.00): 0.69 RE | ADAM17 levels (HUVECs; F-652 alone, control 1.09): 1.14 RE | MMP-7 levels (HUVECs; F-652 alone, control 1.11): 1.23 RE | levels of any matrix metalloproteinase (HUVECs; F-652 only): did not change | VE-CAD RNA levels (HUVECs; F-652 only exposed, control 1.06): 1.01 RE | ADAM17 levels (HUVECs; LPS and F-652, control 1.09, LPS 2.42): 1.22 RE | MMP-7 levels (HUVECs; LPS and F-652, control 1.11, LPS 2.99): 1.53 RE | MYD88 RNA expression (HUVECs; LPS and F-652 co-exposed, LPS only 1.48): 0.72 RE | Exostosin-1 level (HUVECs; [5]): 0.82 RE | TIMP2 level (HUVECs; [5]): 0.82 RE | IRAK4 mRNA expression (HUVECs; LPS and F-652 co-exposed, LPS only 1.51): 0.86 RE | Exostosin-2 level (HUVECs; LPS and F-652 co-exposed, LPS only 1.88): 0.99 RE | TIRAP mRNA expression (HUVECs; LPS and F-652 co-exposed, LPS only 1.92): 0.82 RE | VE-CAD RNA levels (HUVECs; LPS and F-652 co-exposed, control 1.06, LPS only 1.96): 0.81 RE | expression of MMP-9 (HUVECs; [6]): did not change | expression of Matrix Metalloproteinase-1 (MMP-1) (HUVECs; [6]): did not significantly change | relative expression of MMP-2 (HUVECs; [6]): lower relative expression | relative expression of MMP-14 (HUVECs; [6]): lower relative expression | MMP-9 relative expression (HUVECs; LPS and F-652 exposed compared to LPS exposed (2.99)): 1.53 RE | TLR4 mRNA (HUVECs; all comparisons): not significantly different | Levels of TRAM, TRAF6, IRAK1, and TRIF (HUVECs; all group comparisons): not significantly different | Tissue inhibitor of metalloproteinase-1 (TIMP1) (HUVECs; among various HUVEC exposure groups): not different | sgm-N RNA copies compared to no F-652 treatment (SARS-CoV-2; post-treatment, 100 ng/mL F-652 basolaterally on the day post-viral infection): significantly lower | mapping of RNA-seq reads to the SARS-CoV-2 genome compared to no F-652 treatment (SARS-CoV-2; pre-treatment and post-treatment with 100 ng/mL F-652): reduced mapping | sgm-N RNA copies compared to no F-652 treatment (SARS-CoV-2; pre-treatment, 100 ng/mL F-652 for 18 hours before infection): significantly lower | influenza specific CD8+ T cells (Total CD8+) compared to PBS control ([2]; aged mice, 3-week treatment): significantly decreased | lung infiltrating neutrophils and inflammatory monocytes compared to 3-week F-652 treatment ([2]; aged mice, 6-week F-652 treatment): even more decrease | lung infiltrating neutrophils and inflammatory monocytes compared to PBS control ([2]; aged mice, F-652 200 μg/kg weekly for 3 weeks, Days 62-65 post-infection): decreased significantly | CD8+ T cells expressing CD69+ or CD69+/CD103+ compared to PBS control ([2]; both young and aged hosts): decreased significantly | total number of CD8+ T cells ([2]; young mice, 3-week treatment): no significant difference | lung infiltrating neutrophils or inflammatory monocytes, PBS vs F-652 ([2]; young mice, treated for 3 weeks or 6 weeks): no significant difference | hydroxyproline content of right lung lobes compared to PBS control [3]: significantly reduced | CD8+ cells and KRT5+ cells in lungs compared to PBS control [4]: clear trend of decrease | ratio of phosphorylated STAT3 to total STAT3 (STAT3): significantly higher
